The results in this text go back to patent US20130266576A1 (Novo Nordisk, published 2013).

The target of assay [1] is T1, B-domain deleted factor VIII (FVIII) (human, UniProt P00451 20-759; P00451 1668-2351).
T1 construct: also called wt FVIII; wild type FVIII
T1 sequence 1: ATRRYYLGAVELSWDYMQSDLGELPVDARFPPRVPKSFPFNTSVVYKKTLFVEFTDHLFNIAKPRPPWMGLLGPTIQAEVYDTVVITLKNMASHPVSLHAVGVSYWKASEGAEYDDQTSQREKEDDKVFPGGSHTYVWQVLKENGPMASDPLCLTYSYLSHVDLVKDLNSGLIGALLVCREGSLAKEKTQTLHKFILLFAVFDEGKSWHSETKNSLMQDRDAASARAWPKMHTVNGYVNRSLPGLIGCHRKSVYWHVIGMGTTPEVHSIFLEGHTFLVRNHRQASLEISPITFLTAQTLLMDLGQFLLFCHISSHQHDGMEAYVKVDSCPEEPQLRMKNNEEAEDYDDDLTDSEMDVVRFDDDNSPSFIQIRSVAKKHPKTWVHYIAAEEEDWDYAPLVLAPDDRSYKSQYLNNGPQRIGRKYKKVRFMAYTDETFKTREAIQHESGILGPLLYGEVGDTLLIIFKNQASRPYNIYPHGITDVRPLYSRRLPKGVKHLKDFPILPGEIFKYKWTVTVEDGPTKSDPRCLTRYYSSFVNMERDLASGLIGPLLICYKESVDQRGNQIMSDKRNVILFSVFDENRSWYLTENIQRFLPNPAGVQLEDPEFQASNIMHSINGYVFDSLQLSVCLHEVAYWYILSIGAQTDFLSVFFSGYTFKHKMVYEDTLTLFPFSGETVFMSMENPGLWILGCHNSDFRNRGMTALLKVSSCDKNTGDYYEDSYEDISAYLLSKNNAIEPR
T1 sequence 2: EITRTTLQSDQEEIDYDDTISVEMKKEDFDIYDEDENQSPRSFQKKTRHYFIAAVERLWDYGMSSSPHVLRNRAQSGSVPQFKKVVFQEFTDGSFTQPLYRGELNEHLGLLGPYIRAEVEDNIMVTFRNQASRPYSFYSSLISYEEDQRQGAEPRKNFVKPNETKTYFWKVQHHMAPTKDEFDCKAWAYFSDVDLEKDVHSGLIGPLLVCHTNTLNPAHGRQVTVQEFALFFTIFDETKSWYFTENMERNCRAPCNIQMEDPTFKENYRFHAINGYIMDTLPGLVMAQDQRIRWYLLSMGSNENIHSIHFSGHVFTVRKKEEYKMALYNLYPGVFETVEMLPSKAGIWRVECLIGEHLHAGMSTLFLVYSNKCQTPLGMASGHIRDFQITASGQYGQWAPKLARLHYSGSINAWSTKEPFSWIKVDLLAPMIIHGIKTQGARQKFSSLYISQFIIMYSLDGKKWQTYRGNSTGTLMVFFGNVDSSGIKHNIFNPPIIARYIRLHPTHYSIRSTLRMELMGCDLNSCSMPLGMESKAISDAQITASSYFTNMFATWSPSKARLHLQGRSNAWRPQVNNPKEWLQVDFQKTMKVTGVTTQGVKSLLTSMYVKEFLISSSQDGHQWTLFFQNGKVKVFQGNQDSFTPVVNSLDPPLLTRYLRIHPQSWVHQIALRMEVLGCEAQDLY
Description: SPR (Biacore 3000), antibody captured by rabbit anti-mouse IgG, FVIII 0-40 nM as analyte, 25 C, 1:1 Langmuir fit. The protocol: (§1) The kinetics of FVIII binding to antibody was determined by surface plasmon resonance using a Biacore 3000 instrument. Each antibody was captured to a level of 70-110 RU in flow cell 2 of a CM5 chip coated with rabbit anti-mouse IgG antibody (GE Healthcare, Uppsala, Sweden) as described by the manufacturer. Kinetic analysis was performed at 25° C. at a flow rate of 30 μl/min in running buffer using flow cell 1 as reference. Serial two-fold dilutions of FVIII from 0 to 40 nM were analyzed. Following 3-min equilibration of the flow cells in running buffer, 150 μl FVIII were injected. The dissociation phase lasted 9 min and regeneration was performed with a 3-min pulse of 10 mM glycine, pH 1.7. The obtained reference-subtracted sensorgrams fitted well to a 1:1 Langmuir binding model which allowed for estimation of association (Kₒₙ) and dissociation (koff) rate constants and the equilibrium dissociation constant (Kd=koff/kₒₙ) using BIAevaluation 4.1 software (GE Healthcare, Uppsala, Sweden).
TABLE 2 Surface plasmon resonance analysis of the kinetics of FVIII binding to select antibodies. The listed antibodies were captured by immobilized rabbit anti-mouse IgG antibody and binding to FVIII were tested in concentrations ranging from 0 to 40 nM. Binding curves fitted well to a 1:1 Langmuir binding isotherm which provided estimates of association (kₒₙ) and dissociation (koff) rate constants. The dissociation constrant Kd was calculated as koff/kₒₙ. Standard errors obtained from the fits are shown.
(In SPR one partner is held on a chip, and binding of the other changes the refractive index at the surface.)

In assay [2] the target is T1, B-domain deleted factor VIII (FVIII). The assay is described as follows: SPR (Biacore 3000), antibody captured by rabbit anti-mouse IgG, FVIII as analyte; Kd = koff/kon. How it is done:
as §1
TABLE 2 Surface plasmon resonance analysis of the kinetics of FVIII binding to select antibodies. The listed antibodies were captured by immobilized rabbit anti-mouse IgG antibody and binding to FVIII were tested in concentrations ranging from 0 to 40 nM. […] The dissociation constrant Kd was calculated as koff/kₒₙ. […]

The target is the same in assay [3]. Description: cell-based or functional assay.

Numbering of substitutions follows the chain as printed.

B1: anti-FVIII 4F143 (antibody, mouse IgG1, V domains shown)
VH: QIQFVQSGPELKKPGETVKISCKASGYTFTNYGMNWVKQAPGKGLKWMGWINSYTGEPTYADDFKGRFAFSLETSASTAYLQINNLKNEDTATYFCARGASYAMDYWGQGTSVTVSS
VL: DVQITQSPSYLAASPGETITINCRASKSISKYLAWYQEKPVKTNKLLIYSGSTLQSGIPSRFSGSGSGTDFTLTISSLEPEDFAMYYCQQHYEYPLTFGAGTKLELKR
notes: Mouse monoclonal from hybridoma, murine IgG1 heavy chain and kappa light chain; also called Anti-FVIIIa 4F143
The term koff denotes a measure of how fast the partners let go of each other. High values mean fast dissociation, low ones slow dissociation. One may read the kon as the rate constant with which the complex forms. One may read the Kd as the equilibrium constant for the complex coming apart. In assay [1], B1 gave a koff of 0.000849 s⁻¹ and an on-rate constant (kon) of 244000 M⁻¹ s⁻¹. In addition, binding in assay [2] was characterised by a dissociation constant (Kd) of 3.5 nM. In assay [3], the “Maximal level of thrombin generation, fold-increase compared to FVIII” value stood at 1.7 fold and the “Rate of thrombin generation, fold-increase compared to FVIII” value stood at 1.8 fold.

B2: anti-FVIII 4F50 (antibody, mouse IgG1, V domains shown)
VH: B1 VH with A69D, Y106H
VL: B1 VL with T20S
notes: Mouse monoclonal, murine IgG1 heavy chain and kappa light chain; also called Anti-FVIIIa 4F50
In assay [1], B2 gave a koff of 0.00106 s⁻¹ and a kon of 190000 M⁻¹ s⁻¹. The Kd in assay [2] is 5.6 nM.
